Biological target: the molecule itself
Experiment: non-reducing SDS-PAGE with Western blot; lysates of transfected COS-7 cells harvested after 72 h; equal amounts of protein separated by SDS-PAGE under non-reducing conditions; immunoblot with anti-fibin-2 antibody

B1: fibin (mouse), wild type (natural protein, UniProt Q9CQS3 19-217, looked up)
chain: YFDGPLYPEMSNGTLHHYFVPDGDYEENDDPEKCQLLFRVSDRRRCSQGEGGQASSLLSLTLREEFTVLGRQVEDAGRVLEGISKSISYDLDGEESYGKYLRRESHQIGDAYSNSDKSLTELESKFKQGQEQDSRQESRLNEDFLGMLVHTRSLLKETLDISVGLRDKYELLAHTIRSHGTRLGRLKSDYLEGGAQKTG
modifications: N-glycosylated at Asn30
notes: mouse fibin; also called WT fibin; wild-type fibin; source: COS-7, transfected (pcDps vector), in lysate
stoichiometry N: 2

Source: paper PMC3115872, “Characterization of the expression, promoter activity and molecular architecture of fibin” (BMC Biochemistry, 2011)
